# From the MegaScale stability set (Tsuboyama et al. 2023)
# B1: 2M8U (parent)
# chain: TKAQVIEAFKVFDRDGNGYVTVDYLRKVLNELGDMMPADEIEEMIYEADPQNSGYVQYETFVGMLFL
# Variants of: B1
# Assay: folding stability dG (cDNA display proteolysis); higher = more stable
# Conditions: PBS, room temperature
row,Variant,folding stability dG [kcal/mol]
1,TKAQVIEAFKVFDRDGNGYVTVDYLRKVLNELGDQMPADEIEEMIYEADPQNSGYVQYETFVGMLFL [M35Q],3.09
2,TKAQVIEAFKVFDRDGNHYVTVDYLRKVLNELGDMMPADEIEEMIYEADPQNSGYVQYETFVGMLFL [G18H],2.17
3,TKAQVIEAFKVFDRDGNGYVTVDYLRKVLNELGDMMPADEIEEMIYEADPQNDGYVQYETFVGMLFL [S53D],3.02
4,TKAQVIEAFKVFDRDGNGYVTVDYLRKVLNELGDMMPADEIEEMIYEADPQNGGYVQYETFVGMLFL [S53G],2.94
5,TKAQVIEAFKVFDRDGNGYVTVDYLRKVLNELGDMMPADEIEEMIYEADPQNPGYVQYETFVGMLFL [S53P],2.4
6,TKAQVIEAFKVFDRDGNGYVTVDYLRKVLNELGDMMPADEIEEMIYEADPQNEGYVQYETFVGMLFL [S53E],3.09
7,TKAQVIEAFKVFDRDGNGYVTVDYLRKVLNELGDMMPADEIEEMIYEADPQNSGFVQYETFVGMLFL [Y55F],3.35
8,TKAQVIEAFKVFDRDGNGYVTKDYLRKVLNELGDMMPADEIEEMIYEADPQNSGYVQYETFVGMLFL [V22K],3.3
9,TKAQVIEAFKVFDRDGNGYVTVKYLRKVLNELGDMMPADEIEEMIYEADPQNSGYVQYETFVGMLFL [D23K],3.64
10,TKAQVIEAFKVFDRDGNGYVTVEYLRKVLNELGDMMPADEIEEMIYEADPQNSGYVQYETFVGMLFL [D23E],3.74
11,TKAQVIEAFKVFDRDGNGYVTVGYLRKVLNELGDMMPADEIEEMIYEADPQNSGYVQYETFVGMLFL [D23G],3.56
12,TKAQVIEAFKVFDRDGNGYVTVSYLRKVLNELGDMMPADEIEEMIYEADPQNSGYVQYETFVGMLFL [D23S],3.55
13,TKAQVIEAFKVFDRDGNGYVTVDYPRKVLNELGDMMPADEIEEMIYEADPQNSGYVQYETFVGMLFL [L25P],1.25
14,TKAQVIEAFKVFDRDGNGYVTVDYRRKVLNELGDMMPADEIEEMIYEADPQNSGYVQYETFVGMLFL [L25R],2.26
15,TKAQVIEAFKVFDRDGNGYVTVDYLRKVLNELGDMMPADEIEEMIYEADPQHSGYVQYETFVGMLFL [N52H],3.46
16,TKAQVIEAFKVFDRDGNGYVTVDYLRKVLNELGDMMPNDEIEEMIYEADPQNSGYVQYETFVGMLFL [A38N],3.45
17,TKAQVIEAFKVFDRDGNGYVTVDYLRKVLNELGDMMPYDEIEEMIYEADPQNSGYVQYETFVGMLFL [A38Y],3.5
18,TKAQVIEAFKVFDRDGNGYVTVDYLRKVLNELGDMMPHDEIEEMIYEADPQNSGYVQYETFVGMLFL [A38H],3.57
19,TKAQVIEAFKVFDRDGNGYVTVDYLRKVLHELGDMMPADEIEEMIYEADPQNSGYVQYETFVGMLFL [N30H],3.52
20,TKAQVIEAFKVFDRDGNGYVTVDYLRKVLCELGDMMPADEIEEMIYEADPQNSGYVQYETFVGMLFL [N30C],3.37

row,Variant,folding stability dG [kcal/mol]
1,TKAQVIEAFKVFDRDGNGYVTVDYLRKVLEELGDMMPADEIEEMIYEADPQNSGYVQYETFVGMLFL [N30E],3.4
2,TKAQVIEAMKVFDRDGNGYVTVDYLRKVLNELGDMMPADEIEEMIYEADPQNSGYVQYETFVGMLFL [F9M],3.82
3,TKAQVIEAFKVFDRDGNGYVTVDYLRKVLNELGDMMPASEIEEMIYEADPQNSGYVQYETFVGMLFL [D39S],3.52
4,TKAQVIEAFKVFDCDGNGYVTVDYLRKVLNELGDMMPADEIEEMIYEADPQNSGYVQYETFVGMLFL [R14C],3.42
5,TKAQVIEAFKVFDYDGNGYVTVDYLRKVLNELGDMMPADEIEEMIYEADPQNSGYVQYETFVGMLFL [R14Y],3.69
6,TKAQVIEAFKVFDEDGNGYVTVDYLRKVLNELGDMMPADEIEEMIYEADPQNSGYVQYETFVGMLFL [R14E],3.62
7,TKAQVIEAFKVFDDDGNGYVTVDYLRKVLNELGDMMPADEIEEMIYEADPQNSGYVQYETFVGMLFL [R14D],3.5
8,TKAQVIEAFKVFDRDGNGYVTVDYLRKVLNELGQMMPADEIEEMIYEADPQNSGYVQYETFVGMLFL [D34Q],3.79
9,TKAQVIEAFKVFDRDGNGYVTVDYLRKVLNELGCMMPADEIEEMIYEADPQNSGYVQYETFVGMLFL [D34C],4.32
10,TKAQVIEAFKVFDRDGNGYVTVDYLRKVLNELGDMMPADEIEEMIYEAGPQNSGYVQYETFVGMLFL [D49G],2.36
11,TKAQVIEAFKVFDRDGNGYVTVDYLRKVLNELGDMMPADEIEEMIYEAYPQNSGYVQYETFVGMLFL [D49Y],2.67
12,TKAQVIEAFKVFDRDGNGYVTVDYLRKVLNELGDMMPADEDEEMIYEADPQNSGYVQYETFVGMLFL [I41D],1.96
13,TKAQVIEAFKVFDRDGNGYVLVDYLRKVLNELGDMMPADEIEEMIYEADPQNSGYVQYETFVGMLFL [T21L],3.55
14,TKAQVIEAFKVFDRDGNGYVTVDYLRKVLNELGDMMPADDIEEMIYEADPQNSGYVQYETFVGMLFL [E40D],3.69
15,TKAQVIEAFKVFDRDGNGYVTVDYLRKVLNELGDMMPADEIEEMIYEADPQNSGYVQYETVVGMLFL [F61V],3.46
16,TKAQVIEAFKVFLRDGNGYVTVDYLRKVLNELGDMMPADEIEEMIYEADPQNSGYVQYETFVGMLFL [D13L],2.6
17,TKAQVIEAFKVFDRDGNGYFTVDYLRKVLNELGDMMPADEIEEMIYEADPQNSGYVQYETFVGMLFL [V20F],2.47
18,TKAQVIEAFKVFDRDGNGKVTVDYLRKVLNELGDMMPADEIEEMIYEADPQNSGYVQYETFVGMLFL [Y19K],3.07
19,TKAQVIEAFKVFDRDGNGYVTVDYLRKVLNWLGDMMPADEIEEMIYEADPQNSGYVQYETFVGMLFL [E31W],3.64
20,TKAQVIEAFKVFDRDGNGYVTVDYLRKVLNMLGDMMPADEIEEMIYEADPQNSGYVQYETFVGMLFL [E31M],3.74
